Residue numbers refer to the chain shown, from its start.
T1: Ffh (UniProt P0AGD7 1-453)
T1 chain: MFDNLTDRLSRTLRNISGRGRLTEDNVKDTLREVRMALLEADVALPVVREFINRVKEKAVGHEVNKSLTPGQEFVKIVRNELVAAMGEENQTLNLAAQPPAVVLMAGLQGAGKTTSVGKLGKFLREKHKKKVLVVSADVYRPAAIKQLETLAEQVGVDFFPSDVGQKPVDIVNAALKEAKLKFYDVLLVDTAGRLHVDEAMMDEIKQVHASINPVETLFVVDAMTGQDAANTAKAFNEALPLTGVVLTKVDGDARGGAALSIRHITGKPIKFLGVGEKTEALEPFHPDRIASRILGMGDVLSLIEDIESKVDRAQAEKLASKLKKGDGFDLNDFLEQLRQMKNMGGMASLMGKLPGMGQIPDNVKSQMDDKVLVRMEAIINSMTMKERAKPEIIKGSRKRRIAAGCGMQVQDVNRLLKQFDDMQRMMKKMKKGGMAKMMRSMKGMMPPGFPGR

B1: FtsY T307(112)A (domain or fragment)
chain: ASEQAVEEQPQAHTEAEAETFAADVVEVTEQVAESEKAQPEAEVVAQPEPVVEETPEPVAIEREELPLPEDVNAEAVSPEEWQAEAETVEIVEAAEEEAAKEEITDEELETALAAEAAEEAVMVVPPAEEEQPVEEIAQEQEKPTKEGFFARLKRSLLKTKENLGSGFISLFRGKKIDDDLFEELEEQLLIADVGVETTRKIITNLTEGASRKQLRDAEALYGLLKEEMGEILAKVDEPLNVEGKAPFVILMVGVNGVGKATTIGKLARQFEQQGKSVMLAAGDTFRAAAVEQLQVWGQRNNIPVIAQHTGADSASVIFDAIQAAKARNIDVLIADTAGRLQNKSHLMEELKKIVRVMKKLDVEAPHEVMLTIDASTGQNAVSQAKLFHEAVGLTGITLTKLDGTAKGGVIFSVADQFGIPIRYIGVGERIEDLRPFKADDFIEALFARED
B2: FtsY D330(135)A (protein)
chain: B1 chain with A261T, D284A
B3: FtsY K453(252)E (protein)
chain: B1 chain with A261T, K407E
B4: FtsY Asn302(107) to Ala (domain or fragment)
chain: B1 chain with N256A, A261T
B5: FtsY K312(117)A (protein)
chain: B1 chain with A261T, K266A
B6: FtsY D382(187)A (protein)
chain: B1 chain with A261T, D336A
B7: FtsY K306(111)A (protein)
chain: B1 chain with K260A, A261T
B8: FtsY R333(138)A (domain or fragment)
chain: B1 chain with A261T, R287A
B9: FtsY K447(246)A (protein)
chain: B1 chain with A261T, K401A
B10: FtsY G454(253)W (protein)
chain: B1 chain with A261T, G408W
B11: FtsY D479(278)A (protein)
chain: B1 chain with A261T, D433A
B12: FtsY T307(112)W (protein)
chain: B1 chain with A261W
B13: FtsY A336(141)W (domain or fragment)
chain: B1 chain with A261T, A290W
B14: FtsY Asn302(107) to Trp (domain or fragment)
chain: B1 chain with N256W, A261T
B15: FtsY Q339(144)A (protein)
chain: B1 chain with A261T, Q293A

Target: T1, Ffh
Experiment: GTP; inhibition assay

In the case of B1, the Ki is reported as 5.5 µM.

Target: T1, Ffh
Experiment: GTP; inhibition assay
Remark: another data set of the same source

B2 and B3 are within 1.5-fold of each other in Ki: 2.4 µM for the first, 3.1 µM for the second.

First: B4
Second: B5
The Ki of the first is 22-fold lower: 0.11 µM for the first, 2.4 µM for the second.

Going from B6 to B7, the Ki falls from 27 µM to 3.5 µM (7.7-fold). The second binds more tightly here.

Compared with B8, B1 is 30-fold higher in Ki: 0.24 µM for the first, 7.1 µM for the second.

Compared with B9, B10 is 2.6-fold lower in Ki: 11 µM for the first, 4.2 µM for the second. The second binds more tightly here.

Going from B11 to B12, the Ki rises from 2.8 µM to 9.9 µM (3.5-fold).

B13 and B14 are within 1.5-fold of each other in Ki: 0.16 µM for the first, 0.14 µM for the second.

For B15, the Ki was 3.9 µM.

Reference: publication PMC517823 (2004)
